For one data set, the target named is T1, mtDod(WT) (Mycobacterium tuberculosis, UniProt I6XY36).
T1 construct: gene Rv1498A

Data set [1] deals with mtDod-mmACP (Mycobacterium tuberculosis | Mus musculus). Put plainly: SEC. On the technique in general: Size exclusion chromatography separates by hydrodynamic size, large species first.
For data set [2] the target is unchanged. As to the kind of experiment: SDS-PAGE (dodecamer stable in SDS).
Data set [3] concerns the molecule itself. As to the kind of experiment: SDS-PAGE (dodecamer stable in SDS).

For `Cc1cc2nc3c(=O)[nH]c(=O)nc-3n(C[C@H](O)[C@H](O)[C@H](O)COP(=O)(O)O)c2cc1C` [FMN], the “thermocyclic fluorescence assay (quenching of FMN fluorescence on binding to the)” value on mtDod(WT) is “fluorescence quenching that is observed when flavins bind to dodecin”.
On to mtDod-mmACP, for which the stoichiometry N in data set [1] and in data set [2] was 12 each time.

B1: Mycobacterium tuberculosis dodecin wild type (natural protein)
chain: MSNHTYRVIEIVGTSPDGVDAAIQGGLARAAQTMRALDWFEVQSIRGHLVDGAVAHFQVTMKVGFRLEDS
notes: also called mtDod(WT); mtDod; copies: 12
As for B1, the stoichiometry N (in general, the number of molecules, sites or subunits per partner or assembly) in data set [3] is 12.
